Test results as given in article PMC7251119 (Nature Communications, 2020).

B1: (His)10-MBP-DotL(656-783)–IcmSW–LvgA (complex)
chain 1: GQNEPEPVEDIVEEEVEGALTIFSKLRIDPNAPPILVADKEVFSEPLLPINETRNQMITIERLAGAKDKYAGTVANELIKDFQIATSYPPEERDVIDVQELTGIIRDLSAKISAEREKANKKAAEELT
chain 2: MERDISKCMAKIAASMNAKFYLNDRFVSFDEVFSETGLLPAIAKRADQLCSLCLGYGLGATYDESEGALLGIRVVFDEVTPNVLRLLCMTDVMNELIQGGPSRDYTPLDELMYD
chain 3: MPDLSHEASAKYWFEYLDPMIYRVITFMESVENWTLDGNPELEEAMKQLGQELDDIEKIDLGLLAEEDKFIRIVGNIKSGRGLRLLQAIDTVHPGSASRVLIHAEETSLSSSDPAGFFLKRNIVFERLRLLSRVFCQYRLKLVLRALEGDE
chain 4: MADGDIEIKAGFVDTDLDDRKLTMIDDLNNPLAIVERVYLIWWHWADFHLHVISPHIDTITPAIVIEPELIPGSNDHEFVYSIHDSGSKLSTSKSQDMFSAGMSMCKLFYTIEKMVYILVERLKSGGVSMEAEVQIAFAGHEIAQRKAFESIINLPYNVVVTNFDPGIWGEKYLQNVKRLADKGYGYPPESPRKIYMHPVSSGTTARK
notes: copies: + + +
B2: SetA(480-644) (domain or fragment)
chain: GAGTEVEAHESTVKEQEIISQNTVGEEGTKEKNSVQLASENSSDEKIKTAHDLIDEIIQDVIQLDGKLGLLGGNTRQLEDGRVINIPNGAAMIFDDYKKYKQGELTAESALESMIKIAKLSNQLNRHTFFNQRQPETGQFYKKVAAIDLQTTIAAEYDNNHGLRI
B3: SetA(480-644) (domain or fragment)
chain: B2 chain

Experiments:
SetA = target: T1, SetA (Legionella pneumophila, UniProt Q5ZU30 1-644); assay: native gel or EMSA; conditions: both partners purified
T1 sequence: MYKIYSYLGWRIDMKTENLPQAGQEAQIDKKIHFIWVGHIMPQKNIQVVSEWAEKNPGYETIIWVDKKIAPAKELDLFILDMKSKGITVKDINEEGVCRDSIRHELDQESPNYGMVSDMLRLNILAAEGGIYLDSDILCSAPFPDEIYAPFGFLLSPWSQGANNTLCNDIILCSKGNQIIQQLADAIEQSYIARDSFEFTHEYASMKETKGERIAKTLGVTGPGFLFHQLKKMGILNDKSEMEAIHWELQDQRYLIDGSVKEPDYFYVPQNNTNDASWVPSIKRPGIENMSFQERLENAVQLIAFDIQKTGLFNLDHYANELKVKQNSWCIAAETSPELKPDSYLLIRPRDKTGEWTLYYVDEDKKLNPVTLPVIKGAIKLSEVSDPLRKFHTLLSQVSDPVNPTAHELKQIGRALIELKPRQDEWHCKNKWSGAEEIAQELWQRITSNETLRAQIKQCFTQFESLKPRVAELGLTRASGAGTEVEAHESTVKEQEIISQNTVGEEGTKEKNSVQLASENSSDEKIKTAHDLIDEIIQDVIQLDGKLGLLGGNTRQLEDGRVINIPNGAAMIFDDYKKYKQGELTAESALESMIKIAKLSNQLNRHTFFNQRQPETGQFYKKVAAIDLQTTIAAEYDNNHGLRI

VpdB(11-590) = VpdB(11-590) (Legionella pneumophila, UniProt Q5ZW60 11-590); assay: BLI; conditions: both partners purified
[1] = target: B1; assay: native gel or EMSA; conditions: both partners purified
[2] = target: the molecule itself; assay: SEC; […]; 20 mM Tris-HCl (pH 7.5) plus 100 mM NaCl or 300 mM NaCl; […]

## B1
SetA
  binding result: binds
VpdB(11-590)
  Kd: ~400 nM

## ENETLVSSFKQRLQNIKG [(His)10-YFP-SidH(2183-2200)]
[1]
  binding result: binds

## B2
[2]
  stoichiometry N: 2

## B3
[1]
  binding result: binds
